This note sets out measurements from patent US20150087812A1 (Janssen / Centocor, published 2015).

Where only a bound is given, the exact number is not on record here.

In assay [1] the target is T1, recombinant human ATX beta isoform with N-terminal purification tag (human, UniProt Q13822 49-863). The assay is described as follows: ELISA, Fab-His captured by anti-Fd, 5 nM biotinylated human ATX beta. How it is done:
(§1) Fabs were captured on black MaxiSorp plates (Nunc, Cat. No. 437111) coated with 1 μg/ml sheep anti-human Fd (CH1) antibody (The Binding Site, Cat. No. PC075). Plates were washed and biotinylated human ATX was added to the captured Fabs at 5 nM. Incubation was carried out for 1 hour at room temperature with gentle shaking. Plates were washed, SA-HRP (Invitrogen, Cat. No. 43-4323) was added and chemiluminescent detection carried out.
(§2) Clones with binding above background were sequenced and unique clones identified. […] These clones were identified with binding signal to human ATX at least 6-fold above the background. Table 3 lists the identifier for VH and VL (Peptide ID) and the combination of both (Fab ID) sorted by the Fab ELISA binding data.
(ELISA stands for enzyme-linked immunosorbent assay.)

The target in assay [2] is T1, recombinant human ATX beta isoform with …. The assay is described as follows: Fab-His ELISA. Here is the method:
as §1, §2

B1: Fab F105 (VH H97, VL L93) (Fab, V domains shown)
VH: QVQLVQSGAEVKKPGSSVKVSCKASGGTFSSYGISWVRQAPGQGLEWMGGIIPIFGTANYAQKFQGRVTITADESTSTAYMELSSLRSEDTAVYYCARGDDNEVIYHLDYWGQGTLVTVSS
VL: EIVLTQSPGTLSLSPGERATLSCRASQSVAKSDLAWYQQKPGQAPRLLIYTASSRATGIPDRFSGSGSGTDFTLTISRLEPEDFAVYYCQQDYGYPLTFGQGTKVEIK
notes: Soluble Fab-His
As for B1, the “Fab Binding” value in assay [1] was 970000 relative chemiluminescence units. In addition, the fold above background in assay [2] is at least 6 fold.

B2: Fab F135 (VH H138, VL L118) (Fab, V domains shown)
VH: QVQLVQSGAEVKKPGSSVKVSCKASGGTFSSYAISWVRQAPGQGLEWMGGIIPIFGTANYAQKFQGRVTITADESTSTAYMELSSLRSEDTAVYYCARDFLSQFSWLDYWGQGTLVTVSS
VL: EIVLTQSPGTLSLSPGERATLSCRASQSVSSSYLAWYQQKPGQAPRLLIYGASSRATGIPDRFSGSGSGTDFTLTISRLEPEDFAVYYCQQSSGFPLTFGQGTKVEIK
notes: Soluble Fab-His
For the molecule B2, the “Fab Binding” value in assay [1] was 2e+06 relative chemiluminescence units. For the same molecule, the fold above background in assay [2] is at least 6 fold.

B3: Fab F126 (VH H123, VL L110) (Fab, V domains shown)
VH: QVQLVQSGAEVKKPGSSVKVSCKASGGTFSSYAISWVRQAPGQGLEWMGGIIPIFGTANYAQKFQGRVTITADESTSTAYMELSSLRSEDTAVYYCARDRYYFTVLDYWGQGTLVTVSS
VL: EIVLTQSPGTLSLSPGERATLSCRASQSVSSSYLAWYQQKPGQAPRLLIYGASSRATGIPDRFSGSGSGTDFTLTISRLEPEDFAVYYCQQATAFPLTFGQGTKVEIK
notes: Soluble Fab-His; converted to mAb B12
For B3, in assay [1], the “Fab Binding” value is 2.4e+06 relative chemiluminescence units. In addition, in assay [2], the fold above background is at least 6 fold.

B4: Fab F130 (VH H129, VL L113) (Fab, V domains shown)
VH: QVQLVQSGAEVKKPGSSVKVSCKASGGTFSSYAISWVRQAPGQGLEWMGGIIPIFGTANYAQKFQGRVTITADESTSTAYMELSSLRSEDTAVYYCARDHGYAYYSAFDYWGQGTLVTVSS
VL: EIVLTQSPGTLSLSPGERATLSCRASQSVSSSYLAWYQQKPGQAPRLLIYGASSRATGIPDRFSGSGSGTDFTLTISRLEPEDFAVYYCQQSSRDPWTFGQGTKVEIK
notes: Soluble Fab-His
As for B4, the “Fab Binding” value in assay [1] is 2.2e+06 relative chemiluminescence units. For the same molecule, the fold above background in assay [2] was at least 6 fold.

B5: Fab F118 (VH H111, VL L104) (Fab, V domains shown)
VH: QVQLVQSGAEVKKPGSSVKVSCKASGGTFSSYGISWVRQAPGQGLEWMGGIIPIFGTANYAQKFQGRVTITADESTSTAYMELSSLRSEDTAVYYCARDDLPLGMLDYWGQGTLVTVSS
VL: EIVLTQSPGTLSLSPGERATLSCRASQSVSSSYLAWYQQKPGQAPRLLIYGASSRATGIPDRFSGSGSGTDFTLTISRLEPEDFAVYYCQQYTAFPLTFGQGTKVEIK
notes: Soluble Fab-His; converted to mAb B11
Regarding B5, the “Fab Binding” value in assay [1] was 2.6e+06 relative chemiluminescence units. The fold above background in assay [2] was at least 6 fold.

B6: Fab F122 (VH H119, VL L108) (Fab, V domains shown)
VH: QVQLVQSGAEVKKPGSSVKVSCKASGGTFSSYAISWVRQAPGQGLEWMGGIIPIFGTANYAQKFQGRVTITADESTSTAYMELSSLRSEDTAVYYCARDGVTTYDYFDYWGQGTLVTVSS
VL: EIVLTQSPGTLSLSPGERATLSCRASQSVSSSYLAWYQQKPGQAPRLLIYGASSRATGIPDRFSGSGSGTDFTLTISRLEPEDFAVYYCQQSSRYPWTFGQGTKVEIK
notes: Soluble Fab-His
B6: in assay [1], the “Fab Binding” value is 1.9e+06 relative chemiluminescence units. Also, the fold above background in assay [2] is at least 6 fold.

B7: Fab F93 (VH H86, VL L79) (Fab, V domains shown)
VH: QVQLVQSGAEVKKPGSSVKVSCKASGGTFSSYAISWVRQAPGQGLEWMGGIIPIFGTANYAQKFQGRVTITADESTSTAYMELSSLRSEDTAVYYCARDTFWFTVFDYWGQGTLVTVSS
VL: EIVLTQSPGTLSLSPGERATLSCRASQSVSSSYLAWYQQKPGQAPRLLIYGASSRATGIPDRFSGSGSGTDFTLTISRLEPEDFAVYYCQQSNTLPLTFGQGTKVEIK
notes: Soluble Fab-His
As to B7, the “Fab Binding” value in assay [1] was 1.6e+06 relative chemiluminescence units. Moreover, in assay [2], the fold above background is at least 6 fold.

B8: Fab F68 (VH H62, VL L62) (Fab, V domains shown)
VH: QVQLVQSGAEVKKPGSSVKVSCKASGGTFSSYGISWVRQAPGQGLEWMGGIIPIFGTTNYAQKFQGRVTITADESTSTAYMELSSLRSEDTAVYYCARDWWVTDILDYWGQGTLVTVSS
VL: EIVLTQSPGTLSLSPGERATLSCRASQSVSSSYLAWYQQKPGQAPRLLIYGASSRATGIPDRFSGSGSGTDFTLTISRLEPEDFAVYYCQQSNTNPLTFGQGTKVEIK
notes: Soluble Fab-His
Regarding B8, in assay [1], the “Fab Binding” value was 1.8e+06 relative chemiluminescence units. The fold above background in assay [2] is at least 6 fold.

B9: Fab F128 (VH H127, VL L111) (Fab, V domains shown)
VH: QVQLVQSGAEVKKPGSSVKVSCKASGGTFSSYAISWVRQAPGQGLEWMGGIIPIFGNANYAQKFQGRVTITADESTSTAYMELSSLRSEDTAVYYCARGFVNFSRLDYWGQGTLVTVSS
VL: EIVLTQSPGTLSLSPGERATLSCRASQSVSSSYLAWYQQKPGQAPRLLIYGASSRATGIPDRFSGSGSGTDFTLTISRLEPEDFAVYYCQQDSAFPWTFGQGTKVEIK
notes: Soluble Fab-His
For B9, in assay [1], the “Fab Binding” value is 1.8e+06 relative chemiluminescence units. Moreover, the fold above background in assay [2] is at least 6 fold.

B10: Fab F78 (VH H73, VL L73) (Fab, V domains shown)
VH: QVQLVQSGAEVKKPGSSVKVSCKASGGTFSSYAISWVRQAPGQGLEWMGGIIPIFGTANYAQKFQGRVTITADESTSTAYMELSSLRSEDTAVYYCARGTFTYDFLDYWGQGTLVTVSS
VL: EIVLTQSPGTLSLSPGERATLSCRASQSVSSSYLAWYQQKPGQAPRLLIYGASSRATGIPDRFSGSGSGTDFTLTISRLEPEDFAVYYCQQSSRFPWTFGQGTKVEIK
notes: Soluble Fab-His
For B10, the “Fab Binding” value in assay [1] was 1.9e+06 relative chemiluminescence units. Also, the fold above background in assay [2] was at least 6 fold.

B11: Fab F63 (VH H55, VL L57) (Fab, V domains shown)
VH: QVQLVQSGAEVKKPGSSVKVSCKASGGTFSSYGISWVRQAPGQGLEWMGGIIPIFGTANYAQKFQGRVTITADESTSTAYMELSSLRSEDTAVYYCARRDGNYLHVDHFDYWGQGTLVTVSS
VL: EIVLTQSPATLSLSPGERATLSCRASQSVASALAWYQQKPGQAPRLLIYKASNRATGIPARFSGSGSGTDFTLTISSLEPEDFAVYYCQQGGNWPWTFGQGTKVEIK
notes: Soluble Fab-His
For B11, the “Fab Binding” value in assay [1] was 980000 relative chemiluminescence units. Besides, the fold above background in assay [2] is at least 6 fold.

B12: Fab F5 (VH H4, VL L4) (Fab, V domains shown)
VH: EVQLVQSGAEVKKPGESLKISCKGSGYSFTSYWIGWVRQMPGKGLEWMGIIYPGDSDTRYSPSFQGQVTISADKSISTAYLQWSSLKASDTAMYYCARNWSEALYVVFDYWGQGTLVTVSS
VL: EIVLTQSPATLSLSPGERATLSCRASQSVANFLAWYQQKPGQAPRLLIYYASNRATGIPARFSGSGSGTDFTLTISSLEPEDFAVYYCQQYFSAPFTFGQGTKVEIK
notes: Soluble Fab-His; converted to mAb B1
For B12, the “Fab Binding” value in assay [1] was 3.8e+06 relative chemiluminescence units. In assay [2], the fold above background was at least 6 fold.

B13: Fab F69 (VH H63, VL L63) (Fab, V domains shown)
VH: QVQLVQSGAEVKKPGSSVKVSCKASGGTFSSYAISWVRQAPGQGLEWMGGIIPIFGTANYAQKFQGRVTITADESTSTAYMELSSLRSEDTAVYYCARDDDVNSLASYPLDYWGQGTLVTVSS
VL: EIVLTQSPATLSLSPGERATLSCRASQSVSKALAWYQQKPGQAPRLLIYYASNRATGIPARFSGSGSGTDFTLTISSLEPEDFAVYYCQQYKNAPRTFGQGTKVEIK
notes: Soluble Fab-His
On to B13, for which the “Fab Binding” value in assay [1] is 2e+06 relative chemiluminescence units. Further, the fold above background in assay [2] was at least 6 fold.

B14: Fab F74 (VH H68, VL L68) (Fab, V domains shown)
VH: QVQLVQSGAEVKKPGSSVKVSCKASGGTFSSYAISWVRQAPGQGLEWMGGIIPIFGTANYAQKFQGRVTITADESTSTAYMELSSLRSEDTAVYYCARDGDVNSVYSSGLDYWGQGTLVTVSS
VL: EIVLTQSPATLSLSPGERATLSCRASQSVNKFLAWYQQKPGQAPRLLIYFASNRATGIPARFSGSGSGTDFTLTISSLEPEDFAVYYCQQYNHAPFTFGQGTKVEIK
notes: Soluble Fab-His
Turning to B14, the “Fab Binding” value in assay [1] is 1.7e+06 relative chemiluminescence units. Moreover, the fold above background in assay [2] was at least 6 fold.

B15: Fab F33 (VH H24, VL L35) (Fab, V domains shown)
VH: not shown
VL: DIQMTQSPSSLSASVGDRVTITCRASQSIHNWLNWYQQKPGKAPKLLIYAASSLQSGVPSRFSGSGSGTDFTLTISSLQPEDFATYYCQQSYSTPLTFGQGTKVEIK
notes: Soluble Fab-His; converted to mAb B15; the Fab's H24 may differ in FR1
With B15, in assay [1], the “Fab Binding” value was 1.1e+06 relative chemiluminescence units. The fold above background in assay [2] was at least 6 fold.

B16: Fab F16 (VH H10, VL L13) (Fab, V domains shown)
VH: EVQLVQSGAEVKKPGESLKISCKGSGYSFTSYWIGWVRQMPGKGLEWMGIIYPGDSDTRYSPSFQGQVTISADKSISTAYLQWSSLKASDTAMYYCARGLADFWYFDYWGQGTLVTVSS
VL: DIQMTQSPSSLSASVGDRVTITCRASQSIDVWLNWYQQKPGKAPKLLIYAASSLQSGVPSRFSGSGSGTDFTLTISSLQPEDFATYYCQQSYSTPLTFGQGTKVEIK
notes: Soluble Fab-His; converted to mAb B2
Regarding B16, in assay [1], the “Fab Binding” value is 3.9e+06 relative chemiluminescence units. Moreover, the fold above background in assay [2] is at least 6 fold.

B17: Fab F116 (VH H108, VL L100) (Fab, V domains shown)
VH: QVQLVQSGAEVKKPGSSVKVSCKASGGTFSSYAISWVRQAPGQGLEWMGGIIPIFGTANYAQKFQGRVTITADESTSTAYMELSSLRSEDTAVYYCARSDLNNVSTVLDYWGQGTLVTVSS
VL: DIQMTQSPSSLSASVGDRVTITCRASQSIGKVLNWYQQKPGKAPKLLIYGASSLQSGVPSRFSGSGSGTDFTLTISSLQPEDFATYYCQQPISTPLTFGQGTKVEIK
notes: Soluble Fab-His
In the case of B17, in assay [1], the “Fab Binding” value was 1.9e+06 relative chemiluminescence units. Also, the fold above background in assay [2] is at least 6 fold.

B18: Fab F54 (VH H44, VL IFWL195) (Fab, V domains shown)
VH: not shown
VL: DIQMTQSPSSLSASVGDRVTITCRASQSIANWLNWYQQKPGKAPKLLIYAASSLQSGVPSRFSGSGSGTDFTLTISSLQPEDFATYYCQQSYSTPLTFGQGTKVEIK
notes: Soluble Fab-His; converted to mAb B17; the Fab's H44 may differ in FR1
With B18, the “Fab Binding” value in assay [1] is 980000 relative chemiluminescence units. Also, the fold above background in assay [2] is at least 6 fold.

B19: Fab F100 (VH H93, VL PH9L1) (Fab, V domains shown)
VH: QVQLVQSGAEVKKPGSSVKVSCKASGGTFSSYAISWVRQAPGQGLEWMGGIIPIFGNTNYAQKFQGRVTITADESTSTAYMELSSLRSEDTAVYYCARHYLPDATLDYWGQGTLVTVSS
VL: not shown
notes: Soluble Fab-His
Turning to B19, the “Fab Binding” value in assay [1] is 1.9e+06 relative chemiluminescence units. For the same molecule, the fold above background in assay [2] is at least 6 fold.
